Assay results taken from US20050171014A1 (GOVERNMENT OF THE UNITED STATES OF AMERICA REPRESENTED BY …, published 2005).
Non-standard residues stand in square brackets, D forms with d. HTI‑286 = hemiasterlin derivative, cytotoxic agent; Cha = N[C@@H](CC1CCCCC1)C(=O)O; Nle = CCCC[C@H](N)C(=O)O

Columns and labels:
gastrin receptor = molecular target: T1, gastrin receptor; assay: cell-based or functional assay
T1 sequence (P32239 whole entry, species assumed, looked up): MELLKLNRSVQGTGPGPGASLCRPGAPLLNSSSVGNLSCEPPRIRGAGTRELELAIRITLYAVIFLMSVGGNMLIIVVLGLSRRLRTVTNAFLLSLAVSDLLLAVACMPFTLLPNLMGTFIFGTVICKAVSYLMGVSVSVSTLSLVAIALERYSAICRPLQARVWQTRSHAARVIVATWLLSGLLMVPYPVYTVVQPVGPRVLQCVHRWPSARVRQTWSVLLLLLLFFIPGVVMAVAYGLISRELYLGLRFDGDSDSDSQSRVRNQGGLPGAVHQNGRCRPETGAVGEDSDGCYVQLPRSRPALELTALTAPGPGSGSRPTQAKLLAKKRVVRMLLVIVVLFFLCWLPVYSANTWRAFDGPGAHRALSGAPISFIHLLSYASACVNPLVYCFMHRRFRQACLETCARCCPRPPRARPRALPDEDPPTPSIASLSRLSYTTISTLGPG

[1] = molecular target: low-affinity gastrin receptor of nontransfected cells; assay: cell-based or functional assay

{HTI‑286}-[Cha]LALAEEEAYGW[Nle]DF-NH2 [HTI-286-Cha-Leu-Ala-Leu-Ala-EEEAYGW-Nle-DF-NH2] was tested, and the “IC50, growth inhibition of gastrin receptor-expressing 3T3 cells (MTT or sulforhodamine assay)” value (gastrin receptor) was 10 nM and the “IC50, growth inhibition of nontransfected cells (MTT or sulforhodamine assay)” value [1] was 300 nM.
